Key:
Assay in all cases: BLI (Octet)
Rat CD47 (rat) = Rat CD47 (rat) (UniProt P97829)
Cyno CD47 (Cyno monkey) = molecular target: Cyno CD47 (Cyno monkey)
Human CD47 (human) = Human CD47 (human) (UniProt Q08722)
Chain of Human CD47 (human) (Q08722 19-139): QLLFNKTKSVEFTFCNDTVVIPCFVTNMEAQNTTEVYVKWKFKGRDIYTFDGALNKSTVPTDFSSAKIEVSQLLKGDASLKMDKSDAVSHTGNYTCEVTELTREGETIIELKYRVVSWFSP

Chain of Rat CD47 (rat) (P97829 19-140): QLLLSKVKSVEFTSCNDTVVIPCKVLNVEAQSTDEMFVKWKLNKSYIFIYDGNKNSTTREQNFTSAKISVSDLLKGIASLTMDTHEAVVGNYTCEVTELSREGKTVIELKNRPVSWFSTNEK

Anti-human CD47 (clone MIAP410)
Kd (Rat CD47 (rat)): 1.16 nM | Kd (Cyno CD47 (Cyno monkey)): 0.289 nM | Kd (Human CD47 (human)): 0.216 nM
